{"source": "patent US20220204599A1", "about": "(published 2022)", "binders": {"B1": {"name": "CTHRC1-His (other)", "chain": "GAVGASEIPKGKQKAQLRQREVVDLYNGMCLQGPAGVPGRDGSPGANGIPGTPGIPGRDGFKGEKGECLRESFEESWTPNYKQCSWSSLNYGIDLGKIAECTFTKMRSNSALRVLFSGSLRLKCRNACCQRWYFTFNGAECSGPLPIEAIIYLDQGSPEMNSTINIHRTSSVEGLCEGIGAGLVDVAIWVGTCSDYPKGDASTGWNSVSRIIIEELPKLAASANSAVDHHHHHHHH"}}, "assay_in_all_cases": "ELISA", "key": {"CTHRC1-His [1]": {"molecular_target": "B1"}, "CTHRC1-His [2]": {"molecular_target": "B1", "remark": "listed apart in the source"}, "SA2758": {"molecular_target": "SA2758"}, "SA2760": {"molecular_target": "SA2760"}, "SA2764": {"molecular_target": "SA2764"}, "SA2763": {"molecular_target": "SA2763"}, "SA2772": {"molecular_target": "SA2772"}, "SA2767": {"molecular_target": "SA2767"}, "SA2771": {"molecular_target": "SA2771"}, "SA2773": {"molecular_target": "SA2773"}, "SA2766": {"molecular_target": "SA2766"}}, "note": "Where two headings read alike, the source gives them in different places."}
{"binder": "hCMAb45 humanized anti-CTHRC1 antibody (antibody, V domains shown) VH: QVQLVESGAEVKKPGASVKVSCKASGYSFTDYIILWVRQAPGQGLEWMGAINPYYGSTVYGQKFQGRLTITADGSMSTAYMELSSLRSEDTAVYYCARSGYGYDESAMDYWGQGTLVTVSS VL: DIVMTQTPLSLPVTPGEPASISCRSSKSLLNSDGFTYLDWYLQKPGQSPQLLIYLVSNRFSGVPDRFSGSGSGTDFTLKISRVEAEDVGVYYCFQSNYLPLTFGQGTKLEIK", "values": [{"measurement": "Kd", "setting": "CTHRC1-His [1]", "value": 89, "unit": "pM"}, {"measurement": "Kd", "setting": "CTHRC1-His [2]", "value": 128, "unit": "pM"}]}
{"binder": "cCMAb45 anti-CTHRC1 chimeric antibody (antibody, V domains shown) VH: EVQLQQSGPELVKPGASVKISCKASGYSFTDYIMLWVKQSHGKSLEWIGNINPYYGSTSYNLKFKGKATLTVDKSSSTAYMQLNSLTSEDSAVYYCARSGYGYDESAMDYWGQGTSVTVSS VL: DVLMTQTPLSLPVNIGDQASISCKSTKSLLNSDGFTYLDWYLQKPGQSPQLLIYLVSNRFSGVPDRFSGSGSGTDFTLKISRVEAEDLGVYYCFQSNYLPLTFGSGTKLEIK", "values": [{"measurement": "Kd", "setting": "CTHRC1-His [1]", "value": 93, "unit": "pM"}, {"measurement": "Kd", "setting": "CTHRC1-His [2]", "value": 257, "unit": "pM"}]}
{"binder": "B1", "values": [{"measurement": "Kd", "setting": "SA2758", "value": 82, "unit": "pM"}, {"measurement": "Kd", "setting": "SA2760", "value": 118, "unit": "pM"}, {"measurement": "Kd", "setting": "SA2764", "value": 175, "unit": "pM"}, {"measurement": "Kd", "setting": "SA2763", "value": 250, "unit": "pM"}, {"measurement": "Kd", "setting": "SA2772", "value": 406, "unit": "pM"}, {"measurement": "Kd", "setting": "SA2767", "value": 480, "unit": "pM"}, {"measurement": "Kd", "setting": "SA2771", "value": 221, "unit": "pM"}, {"measurement": "Kd", "setting": "SA2773", "value": 300, "unit": "pM"}, {"measurement": "Kd", "setting": "SA2766", "value": 202, "unit": "pM"}]}
{"binder": "hCMAb96 humanized anti-CTHRC1 antibody (antibody, V domains shown) VH: QVQLVQSGAEVKKPGASVKVSCKASGYTFTSYWMHWVRQAPGQGLEWIGYIYPSSGTTNYNQKFQGRVTITADESTSTAYMELSPLRSEDTAVYYCTTESYWGQGTTVTVSS VL: DIQMTQSPSSLSASLGDTITITCHASQNINVWLAWYQQKPGKAPKLLIYKASNLHSGVPSRFSGSGSGTDFTLTISSLQPEDIATYYCQQGQSYPLTFGQGTKVEIK", "values": [{"measurement": "Kd", "setting": "CTHRC1-His [1]", "value": 131, "unit": "pM"}, {"measurement": "Kd", "setting": "CTHRC1-His [2]", "value": 196, "unit": "pM"}]}
{"binder": "cCMAb96 anti-CTHRC1 chimeric antibody (antibody, V domains shown) VH: QVQLQQPGSELVRPGASVKLSCKASGYTFTSYWMHWVKQRPGQGLEWIGNIYPSSGTTNYDEKFKNKATLTVDTSSTTAYMHLSSLTSEDSAVYYCTTESYWGQGTTLTVSS VL: DIVMTQSPSSLSASLGDTITITCHASQNINVWLSWYQQKPGNIPKLLIYKASNLHTGVPSRFSGSGSGTGFTLTISSLQPEDIATYYCQQGQSYPLTFGGGTKLEIK", "values": [{"measurement": "Kd", "setting": "CTHRC1-His [1]", "value": 128, "unit": "pM"}, {"measurement": "Kd", "setting": "CTHRC1-His [2]", "value": 187, "unit": "pM"}]}
